Reference: PMC9482650, “Quantitative fragmentomics allow affinity mapping of interactomes” (Nature Communications, 2022)

T1: PDZRN3_1, Q9UPQ7
T1 sequence (Q9UPQ7 244-349, limits assumed, looked up): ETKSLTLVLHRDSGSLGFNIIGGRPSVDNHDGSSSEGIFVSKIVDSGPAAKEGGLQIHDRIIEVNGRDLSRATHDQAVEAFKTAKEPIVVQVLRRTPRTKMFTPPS

T2: DFNB31_1, Q9P202
T2 sequence (Q9P202 135-233, limits assumed, looked up): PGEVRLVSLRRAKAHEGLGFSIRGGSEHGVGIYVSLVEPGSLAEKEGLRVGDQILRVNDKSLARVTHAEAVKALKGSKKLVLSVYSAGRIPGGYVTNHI

T3: PTPN13_1, Q12923
T3 sequence (Q12923 1088-1188, limits assumed, looked up): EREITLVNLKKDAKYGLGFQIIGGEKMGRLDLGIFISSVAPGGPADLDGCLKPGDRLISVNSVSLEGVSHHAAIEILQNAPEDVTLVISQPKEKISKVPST

T4: TX1BP3, O14907
T4 sequence (O14907 10-122, limits assumed, looked up): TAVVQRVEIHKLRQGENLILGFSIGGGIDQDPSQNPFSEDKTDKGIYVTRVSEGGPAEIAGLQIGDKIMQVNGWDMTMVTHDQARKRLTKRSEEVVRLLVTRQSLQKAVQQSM

T5: TIAM2, Q8IVF5
T5 sequence (Q8IVF5 885-986, limits assumed, looked up): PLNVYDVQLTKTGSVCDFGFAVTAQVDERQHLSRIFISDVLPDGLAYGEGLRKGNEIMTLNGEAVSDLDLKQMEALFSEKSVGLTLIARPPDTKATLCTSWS

T6: SYNJ2BP, P57105
T6 sequence (P57105 8-110, limits assumed, looked up): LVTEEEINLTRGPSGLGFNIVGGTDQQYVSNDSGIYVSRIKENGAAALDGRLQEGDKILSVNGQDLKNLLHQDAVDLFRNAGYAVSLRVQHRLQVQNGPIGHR

T7: MPP2, Q14168
T7 sequence (Q14168 180-250, limits assumed, looked up): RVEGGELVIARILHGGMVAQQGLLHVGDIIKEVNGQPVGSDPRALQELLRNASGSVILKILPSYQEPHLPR

T8: LRRC7, Q96NW7
T8 sequence (Q96NW7 1440-1537, limits assumed, looked up): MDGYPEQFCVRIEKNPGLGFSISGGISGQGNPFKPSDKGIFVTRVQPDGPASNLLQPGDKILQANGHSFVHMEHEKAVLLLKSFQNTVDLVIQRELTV

T9: GRIP1_2, Q9Y3R0
T9 sequence (Q9Y3R0 145-248, limits assumed, looked up): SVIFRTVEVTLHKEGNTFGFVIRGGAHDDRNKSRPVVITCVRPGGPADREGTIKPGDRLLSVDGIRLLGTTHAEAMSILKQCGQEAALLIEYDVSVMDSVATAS

T10: DFNB31_2, Q9P202
T10 sequence (Q9P202 274-371, limits assumed, looked up): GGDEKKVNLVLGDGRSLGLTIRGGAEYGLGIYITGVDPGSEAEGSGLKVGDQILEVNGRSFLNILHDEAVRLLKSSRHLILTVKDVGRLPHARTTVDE

T11: SNTG1, Q9NSN8
T11 sequence (Q9NSN8 52-150, limits assumed, looked up): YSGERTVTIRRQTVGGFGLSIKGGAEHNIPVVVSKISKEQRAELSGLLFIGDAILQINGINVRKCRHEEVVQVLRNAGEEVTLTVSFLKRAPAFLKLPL

T12: PCLO, Q9Y6V0
T12 sequence (Q9Y6V0 4491-4600, limits assumed, looked up): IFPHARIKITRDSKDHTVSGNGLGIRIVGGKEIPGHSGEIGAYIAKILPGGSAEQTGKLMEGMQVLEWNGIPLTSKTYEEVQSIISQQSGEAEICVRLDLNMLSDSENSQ

T13: FRMPD1, Q5SYB0
T13 sequence (Q5SYB0 52-145, limits assumed, looked up): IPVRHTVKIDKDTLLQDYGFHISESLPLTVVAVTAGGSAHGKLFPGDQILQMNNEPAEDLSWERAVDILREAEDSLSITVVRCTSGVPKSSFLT

T14: PDZD2_2, O15018
T14 sequence (O15018 329-429, limits assumed, looked up): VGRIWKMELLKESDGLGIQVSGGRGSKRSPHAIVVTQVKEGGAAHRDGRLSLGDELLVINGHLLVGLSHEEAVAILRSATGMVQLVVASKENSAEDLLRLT


target: T1, PDZRN3_1, Q9UPQ7; assay: holdup assay; set-up: key: below the threshold = too weak to quantify, mostly under pKd 3.1 to 4; conditions: plain residues with an end cap or a label only (N-terminal biotin on a linker: ado-ado)

Row | Binder | pKd
1 | EWTDERQSKV [GAB3, Q8WWW8] | 3.62
2 | TGLWKSETTV [ADGRA2, Q96PE1] | 4.07

target: T2, DFNB31_1, Q9P202; assay: holdup assay; set-up: key: below the threshold = too weak to quantify, mostly under pKd 3.1 to 4; conditions: plain residues with an end cap or a label only (N-terminal biotin on a linker: ado-ado)

Row | Binder | pKd
3 | EWTDERQSKV [GAB3, Q8WWW8] | 3.94
4 | TGLWKSETTV [ADGRA2, Q96PE1] | 3.64

target: T3, PTPN13_1, Q12923; assay: holdup assay; set-up: key: below the threshold = too weak to quantify, mostly under pKd 3.1 to 4; conditions: plain residues with an end cap or a label only (N-terminal biotin on a linker: ado-ado)

Row | Binder | pKd
5 | EWTDERQSKV [GAB3, Q8WWW8] | below the threshold
6 | TGLWKSETTV [ADGRA2, Q96PE1] | below the threshold

target: Inadl_3, Q8NI35; assay: holdup assay; set-up: key: below the threshold = too weak to quantify, mostly under pKd 3.1 to 4; conditions: plain residues with an end cap or a label only (N-terminal biotin on a linker: ado-ado)
Sequence (Q8NI35 359-469): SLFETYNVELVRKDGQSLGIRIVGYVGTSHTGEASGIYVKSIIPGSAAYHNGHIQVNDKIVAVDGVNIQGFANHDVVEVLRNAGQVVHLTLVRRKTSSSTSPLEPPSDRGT

Row | Binder | pKd
7 | EWTDERQSKV [GAB3, Q8WWW8] | below the threshold
8 | TGLWKSETTV [ADGRA2, Q96PE1] | 3.97

target: T4, TX1BP3, O14907; assay: holdup assay; set-up: key: below the threshold = too weak to quantify, mostly under pKd 3.1 to 4; conditions: plain residues with an end cap or a label only (N-terminal biotin on a linker: ado-ado)

Row | Binder | pKd
9 | EWTDERQSKV [GAB3, Q8WWW8] | 3.72
10 | TGLWKSETTV [ADGRA2, Q96PE1] | 4.87

target: CASK, O14936; assay: holdup assay; set-up: key: below the threshold = too weak to quantify, mostly under pKd 3.1 to 4; conditions: plain residues with an end cap or a label only (N-terminal biotin on a linker: ado-ado)
Sequence (O14936 487-570): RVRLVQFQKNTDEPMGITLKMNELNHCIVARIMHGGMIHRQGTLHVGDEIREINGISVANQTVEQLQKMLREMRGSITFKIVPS

Row | Binder | pKd
11 | EWTDERQSKV [GAB3, Q8WWW8] | below the threshold
12 | TGLWKSETTV [ADGRA2, Q96PE1] | below the threshold

target: T5, TIAM2, Q8IVF5; assay: holdup assay; set-up: key: below the threshold = too weak to quantify, mostly under pKd 3.1 to 4; conditions: plain residues with an end cap or a label only (N-terminal biotin on a linker: ado-ado)

Row | Binder | pKd
13 | EWTDERQSKV [GAB3, Q8WWW8] | below the threshold
14 | TGLWKSETTV [ADGRA2, Q96PE1] | below the threshold

target: T6, SYNJ2BP, P57105; assay: holdup assay; set-up: key: below the threshold = too weak to quantify, mostly under pKd 3.1 to 4; conditions: plain residues with an end cap or a label only (N-terminal biotin on a linker: ado-ado)

Row | Binder | pKd
15 | EWTDERQSKV [GAB3, Q8WWW8] | 3.72
16 | TGLWKSETTV [ADGRA2, Q96PE1] | 5.08

target: T7, MPP2, Q14168; assay: holdup assay; set-up: key: below the threshold = too weak to quantify, mostly under pKd 3.1 to 4; conditions: plain residues with an end cap or a label only (N-terminal biotin on a linker: ado-ado)

Row | Binder | pKd
17 | EWTDERQSKV [GAB3, Q8WWW8] | below the threshold
18 | TGLWKSETTV [ADGRA2, Q96PE1] | below the threshold

target: FRMPD4, Q14CM0; assay: holdup assay; set-up: key: below the threshold = too weak to quantify, mostly under pKd 3.1 to 4; conditions: plain residues with an end cap or a label only (N-terminal biotin on a linker: ado-ado)
Sequence (Q14CM0 67-160): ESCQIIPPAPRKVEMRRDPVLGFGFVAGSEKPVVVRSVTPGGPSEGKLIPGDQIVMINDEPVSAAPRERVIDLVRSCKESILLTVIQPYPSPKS

Row | Binder | pKd
19 | EWTDERQSKV [GAB3, Q8WWW8] | below the threshold
20 | TGLWKSETTV [ADGRA2, Q96PE1] | below the threshold

target: T8, LRRC7, Q96NW7; assay: holdup assay; set-up: key: below the threshold = too weak to quantify, mostly under pKd 3.1 to 4; conditions: plain residues with an end cap or a label only (N-terminal biotin on a linker: ado-ado)

Row | Binder | pKd
21 | EWTDERQSKV [GAB3, Q8WWW8] | below the threshold
22 | TGLWKSETTV [ADGRA2, Q96PE1] | 3.56

target: MAGI1_2, Q96QZ7; assay: holdup assay; set-up: key: below the threshold = too weak to quantify, mostly under pKd 3.1 to 4; conditions: plain residues with an end cap or a label only (N-terminal biotin on a linker: ado-ado)
Sequence (Q96QZ7 456-580): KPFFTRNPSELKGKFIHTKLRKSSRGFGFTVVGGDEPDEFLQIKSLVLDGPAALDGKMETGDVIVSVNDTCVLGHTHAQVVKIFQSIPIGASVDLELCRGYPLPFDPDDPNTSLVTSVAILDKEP

Row | Binder | pKd
23 | EWTDERQSKV [GAB3, Q8WWW8] | below the threshold
24 | TGLWKSETTV [ADGRA2, Q96PE1] | 4.92

target: T9, GRIP1_2, Q9Y3R0; assay: holdup assay; set-up: key: below the threshold = too weak to quantify, mostly under pKd 3.1 to 4; conditions: plain residues with an end cap or a label only (N-terminal biotin on a linker: ado-ado)

Row | Binder | pKd
25 | EWTDERQSKV [GAB3, Q8WWW8] | below the threshold
26 | TGLWKSETTV [ADGRA2, Q96PE1] | below the threshold

target: SNX27, Q96L92; assay: holdup assay; set-up: key: below the threshold = too weak to quantify, mostly under pKd 3.1 to 4; conditions: plain residues with an end cap or a label only (N-terminal biotin on a linker: ado-ado)

Row | Binder | pKd
27 | EWTDERQSKV [GAB3, Q8WWW8] | 4.72
28 | TGLWKSETTV [ADGRA2, Q96PE1] | 5.4

target: T10, DFNB31_2, Q9P202; assay: holdup assay; set-up: key: below the threshold = too weak to quantify, mostly under pKd 3.1 to 4; conditions: plain residues with an end cap or a label only (N-terminal biotin on a linker: ado-ado)

Row | Binder | pKd
29 | EWTDERQSKV [GAB3, Q8WWW8] | 3.75
30 | TGLWKSETTV [ADGRA2, Q96PE1] | below the threshold

target: T11, SNTG1, Q9NSN8; assay: holdup assay; set-up: key: below the threshold = too weak to quantify, mostly under pKd 3.1 to 4; conditions: plain residues with an end cap or a label only (N-terminal biotin on a linker: ado-ado)

Row | Binder | pKd
31 | EWTDERQSKV [GAB3, Q8WWW8] | 3.97
32 | TGLWKSETTV [ADGRA2, Q96PE1] | 4.21

target: GRIP2_6, Q9C0E4; assay: holdup assay; set-up: key: below the threshold = too weak to quantify, mostly under pKd 3.1 to 4; conditions: plain residues with an end cap or a label only (N-terminal biotin on a linker: ado-ado)
Sequence (Q9C0E4 648-740): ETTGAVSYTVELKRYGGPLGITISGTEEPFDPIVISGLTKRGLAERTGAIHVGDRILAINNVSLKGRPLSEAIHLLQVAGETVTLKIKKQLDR

Row | Binder | pKd
33 | EWTDERQSKV [GAB3, Q8WWW8] | below the threshold
34 | TGLWKSETTV [ADGRA2, Q96PE1] | below the threshold

target: T12, PCLO, Q9Y6V0; assay: holdup assay; set-up: key: below the threshold = too weak to quantify, mostly under pKd 3.1 to 4; conditions: plain residues with an end cap or a label only (N-terminal biotin on a linker: ado-ado)

Row | Binder | pKd
35 | EWTDERQSKV [GAB3, Q8WWW8] | below the threshold
36 | TGLWKSETTV [ADGRA2, Q96PE1] | below the threshold

target: T13, FRMPD1, Q5SYB0; assay: holdup assay; set-up: key: below the threshold = too weak to quantify, mostly under pKd 3.1 to 4; conditions: plain residues with an end cap or a label only (N-terminal biotin on a linker: ado-ado)

Row | Binder | pKd
37 | EWTDERQSKV [GAB3, Q8WWW8] | below the threshold
38 | TGLWKSETTV [ADGRA2, Q96PE1] | below the threshold

target: DLG5_1, Q8TDM6; assay: holdup assay; set-up: key: below the threshold = too weak to quantify, mostly under pKd 3.1 to 4; conditions: plain residues with an end cap or a label only (N-terminal biotin on a linker: ado-ado)
Sequence (Q8TDM6 617-713): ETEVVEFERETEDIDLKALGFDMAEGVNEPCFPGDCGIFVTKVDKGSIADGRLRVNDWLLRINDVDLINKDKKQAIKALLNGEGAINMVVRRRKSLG

Row | Binder | pKd
39 | EWTDERQSKV [GAB3, Q8WWW8] | 3.66
40 | TGLWKSETTV [ADGRA2, Q96PE1] | below the threshold

target: T14, PDZD2_2, O15018; assay: holdup assay; set-up: key: below the threshold = too weak to quantify, mostly under pKd 3.1 to 4; conditions: plain residues with an end cap or a label only (N-terminal biotin on a linker: ado-ado)

Row | Binder | pKd
41 | EWTDERQSKV [GAB3, Q8WWW8] | 5.23
42 | TGLWKSETTV [ADGRA2, Q96PE1] | 3.81

target: GIPC2, Q8TF65; assay: holdup assay; set-up: key: below the threshold = too weak to quantify, mostly under pKd 3.1 to 4; conditions: plain residues with an end cap or a label only (N-terminal biotin on a linker: ado-ado)
Sequence (Q8TF65 112-203): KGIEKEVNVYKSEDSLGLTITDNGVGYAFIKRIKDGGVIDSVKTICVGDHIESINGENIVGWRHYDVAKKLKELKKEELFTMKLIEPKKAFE

Row | Binder | pKd
43 | EWTDERQSKV [GAB3, Q8WWW8] | 3.52
44 | TGLWKSETTV [ADGRA2, Q96PE1] | 4.04

target: FRMPD2_3, Q68DX3; assay: holdup assay; set-up: key: below the threshold = too weak to quantify, mostly under pKd 3.1 to 4; conditions: plain residues with an end cap or a label only (N-terminal biotin on a linker: ado-ado)
Sequence (Q68DX3 1073-1166): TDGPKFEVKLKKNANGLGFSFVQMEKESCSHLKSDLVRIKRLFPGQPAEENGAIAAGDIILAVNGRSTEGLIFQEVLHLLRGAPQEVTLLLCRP

Row | Binder | pKd
45 | EWTDERQSKV [GAB3, Q8WWW8] | 3.55
46 | TGLWKSETTV [ADGRA2, Q96PE1] | below the threshold
